The results in this text go back to article PMC2791212, “N-Terminal Deletion of Peptide:N-Glycanase Results in Enhanced Deglycosylation Activity” (PLoS ONE, 2009).

For assay [1], the target named is T1, Png1p-ΔH1 (33-363 aa), N-terminal H1 helix deletion mutant of S. cerevisiae Png1p (S. cerevisiae, UniProt Q02890 33-363).
T1 construct: Png1p (peptide:N-glycanase), S. cerevisiae W303-1a, amino acids 33-363 (lacks the N-terminal H1 helix), cloned into EcoRI and HindIII sites of pET-22b(+); Plasmid pET-22b/png1p-ΔH1; eluted as 'Protein-His6'; also called N-terminal H1 deletion mutant; source: E. coli BL21 (DE3) pLysS, purified (Ni2+-NTA)
T1 sequence (looked up): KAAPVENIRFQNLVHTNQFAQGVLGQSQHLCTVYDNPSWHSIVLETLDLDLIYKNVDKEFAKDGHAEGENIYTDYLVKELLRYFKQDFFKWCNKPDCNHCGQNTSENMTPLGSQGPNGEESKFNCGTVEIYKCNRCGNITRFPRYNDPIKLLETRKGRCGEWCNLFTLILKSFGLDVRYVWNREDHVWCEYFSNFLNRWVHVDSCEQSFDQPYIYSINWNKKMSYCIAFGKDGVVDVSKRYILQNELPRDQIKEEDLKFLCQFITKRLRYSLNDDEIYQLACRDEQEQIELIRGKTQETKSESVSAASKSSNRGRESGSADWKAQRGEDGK
The assay can be described thus: SPR; RNase B (40 µg/ml, 10 mM sodium acetate pH 5.31) amine-coupled to a CT405 chip; Png1p or Png1p-ΔH1 as analytes (80-1000 nM), 25°C, 10 mM HEPES pH 7.4, 5 µl/min; 1:1 Langmuir model, global fit; KD = koff/kon. The following applies: both partners purified. Background: Surface plasmon resonance follows binding to a sensor surface in real time, without labels.

The target in assay [2] is T2, Peptide:N-glycanase from yeast (Png1p), full length (S. cerevisiae, UniProt Q02890 1-363).
T2 construct: Png1p (peptide:N-glycanase), S. cerevisiae W303-1a, gene amplified from genomic DNA, amino acids 1-363, cloned into EcoRI and HindIII sites of pET-22b(+); Plasmid pET-22b/png1p; eluted as 'Protein-His6'; The vector may add further residues at the N-terminus (cloning at EcoRI of pET-22b); also called PNGase; wild type Png1p; source: E. coli BL21 (DE3) pLysS, purified (Ni2+-NTA)
T2 sequence (looked up): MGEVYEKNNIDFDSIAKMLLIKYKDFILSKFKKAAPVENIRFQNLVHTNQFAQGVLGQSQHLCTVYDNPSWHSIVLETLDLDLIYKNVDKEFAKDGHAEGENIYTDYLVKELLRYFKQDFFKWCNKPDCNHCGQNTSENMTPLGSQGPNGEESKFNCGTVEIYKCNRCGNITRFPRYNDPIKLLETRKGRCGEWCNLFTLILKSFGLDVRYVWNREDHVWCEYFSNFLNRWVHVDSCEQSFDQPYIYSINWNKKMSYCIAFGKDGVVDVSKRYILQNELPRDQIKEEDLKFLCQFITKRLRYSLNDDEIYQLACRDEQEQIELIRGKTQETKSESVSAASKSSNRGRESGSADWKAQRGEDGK
The assay is described as above. The following applies: both partners purified.

B1: Ribonuclease B (RNase B), denatured (natural protein, UniProt P61823 27-150, looked up)
chain: KETAAAKFERQHMDSSTSAASSSNYCNQMMKSRNLTKDRCKPVNTFVHESLADVQAVCSQKNVACKNGQTNCYQSYSTMSITDCRETGSSKYPNCAYKTTQANKHIIVACEGNPYVPVHFDASV
modifications: N-linked glycan (glycoprotein; position not stated)
notes: Ribonuclease B, the glycosylated form of pancreatic ribonuclease; Denatured by heating at 100°C for 10 min and rapid freezing (deglycosylation methods); also called denatured RNase B
In the case of B1, in assay [1], binding was characterised by a dissociation constant (Kd) of 2.9 µM; the off-rate constant (koff) (in general, the rate constant with which the complex falls apart) stood at 0.05 s⁻¹; the kon (usually a measure of how fast the partners come together) turned out to be 17000 M⁻¹ s⁻¹. In addition, in assay [2], the Kd (in general, a measure of binding affinity in units of concentration) is 7.7 µM; the koff was found to be 0.094 s⁻¹; the kon is 12200 M⁻¹ s⁻¹.
